Reference: US20080242590A1, “New Method 706” (ASTRAZENECA AB, priority 2007, published 2008)

Columns and labels:
[1] = target: amyloid β peptide 1-42 (human) (human); assay: cell-based or functional assay
[2] = target: amyloid β peptide 1-40 (human) (human); assay: cell-based or functional assay
Chain of amyloid β peptide 1-40 (human) (human) (peptide, as listed by the source): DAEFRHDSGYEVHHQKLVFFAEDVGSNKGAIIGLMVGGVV

Chain of amyloid β peptide 1-42 (human) (human) (peptide, as listed by the source): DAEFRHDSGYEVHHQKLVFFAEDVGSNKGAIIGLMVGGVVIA

% degradation of Aβ 1-42 in APPswe-tg mouse plasma at highest concentration (100 µg/ml), 1 h room temperature, ELISA [1]: 34% | % degradation of Aβ 1-42 in human plasma at highest concentration (100 µg/ml), 1 h room temperature, ELISA [1]: 28% | EC50 of degradation of Aβ 1-42 in APPswe-tg mouse plasma [1]: 1.3 µM | EC50 of degradation of Aβ 1-42 in human plasma [1]: 0.25 µM | % degradation of amyloid β 1-40 in APPswe-tg mouse plasma at highest concentration (100 µg/ml), 1 h room temperature, ELISA [2]: 71% | % degradation of amyloid β 1-40 in human plasma at highest concentration (100 µg/ml), 1 h room temperature, ELISA [2]: 66% | Amyloid β 1-40 peptide degradation (remaining peptide by Gyrolab immunoassay), batch 1, 2.4 µg/ml, 300 nM peptide, 2.5 h at 37 °C in buffer [2]: 50% | Amyloid β 1-40 peptide degradation (remaining peptide by Gyrolab immunoassay), batch 2, 2.4 µg/ml, 300 nM peptide, 2.5 h at 37 °C in buffer [2]: 42% | EC50 of degradation of Aβ 1-40 in APPswe-tg mouse plasma [2]: 0.47 µM | EC50 of degradation of Aβ 1-40 in human plasma [2]: 0.58 µM
B1: Fc-Neprilysin fusion protein (human IgG2 hinge and Fc domain fused N-terminally to the extracellular domain of human Neprilysin) (Fc fusion)
chain: ERKCCVECPPCPAPPVAGPSVFLFPPKPKDTLMISRTPEVTCVVVDVSHEDPEVQFNWYVDGVEVHNAKTKPREEQFNSTFRVVSVLTVVHQDWLNGKEYKCKVSNKGLPAPIEKTISKTKGQPREPQVYTLPPSREEMTKNQVSLTCLVKGFYPSDIAVEWESNGQPENNYKTTPPMLDSDGSFFLYSKLTVDKSRWQQGNVFSCSVMHEALHNHYTQKSLSLSPGKYDDGICKSSDCIKSAARLIQNMDATTEPCTDFFKYACGGWLKRNVIPETSSRYGNFDILRDELEVVLKDVLQEPKTEDIVAVQKAKALYRSCINESAIDSRGGEPLLKLLPDIYGWPVATENWEQKYGASWTAEKAIAQLNSKYGKKVLINLFVGTDDKNSVNHVIHIDQPRLGLPSRDYYECTGIYKEACTAYVDFMISVARLIRQEERLPIDENQLALEMNKVMELEKEIANATAKPEDRNDPMLLYNKMTLAQIQNNFSLEINGKPFSWLNFTNEIMSTVNISITNEEDVVVYAPEYLTKLKPILTKYSARDLQNLMSWRFIMDLVSSLSRTYKESRNAFRKALYGTTSETATWRRCANYVNGNMENAVGRLYVEAAFAGESKHVVEDLIAQIREVFIQTLDDLTWMDAETKKRAEEKALAIKERIGYPDDIVSNDNKLNNEYLELNYKEDEYFENIIQNLKFSQSKQLKKLREKVDKDEWISGAAVVNAFYSSGRNQIVFPAGILQPPFFSAQQSNSLNYGGIGMVIGHEITHGFDDNGRNFNKDGDLVDWWTQQSASNFKEQSQCMVYQYGNFSWDLAGGQHLNGINTLGENIADNGGLGQAYRAYQNYIKKNGEEKLLPGLDLNHKQLFFLNFAQVWCGTYRPEYAVNSIKTDVHSPGNFRIIGTLQNSAEFSEAFHCRKNSYMNPEKKCRVW
